Article PMC4825002, “Fibromodulin Interacts with Collagen Cross-linking Sites and Activates Lysyl Oxidase*” (The Journal of Biological Chemistry, 2016)

Experiments:
[1] = biological target: T1, recombinant lysyl oxidase protein (Origene) (UniProt P28300 22-417); assay: ELISA; solid-phase assay: FMOD variants coated; serial dilutions of LOX; detected with anti-LOX antibody; apparent KD; details: both partners purified
T1 construct: lysyl oxidase; the functional rows use this molecule for it; source: bought: Origene
T1 sequence (looked up): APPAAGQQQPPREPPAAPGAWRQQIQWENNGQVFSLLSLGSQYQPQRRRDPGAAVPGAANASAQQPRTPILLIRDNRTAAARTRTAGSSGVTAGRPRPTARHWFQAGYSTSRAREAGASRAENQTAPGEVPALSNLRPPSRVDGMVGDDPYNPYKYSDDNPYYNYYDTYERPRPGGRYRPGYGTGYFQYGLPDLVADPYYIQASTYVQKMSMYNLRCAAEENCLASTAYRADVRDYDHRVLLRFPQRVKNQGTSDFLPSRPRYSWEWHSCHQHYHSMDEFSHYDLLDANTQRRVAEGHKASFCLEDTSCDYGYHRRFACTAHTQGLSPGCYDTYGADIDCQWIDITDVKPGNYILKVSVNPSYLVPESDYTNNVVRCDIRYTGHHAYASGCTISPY

[2] = biological target: T2, acetic acid-extracted tail tendon mouse collagen I (mouse, UniProt P11087 152-1207; Q01149 86-1125); assay: ELISA; solid-phase assay: collagen coated at 10 μg/ml in PBS; serially diluted FMOD or LOX; detected with anti-His tag or anti-LOX antibodies; apparent KD; details: both partners purified
T2 construct: collagen I alpha1 chain, mouse, tissue-extracted; collagen I alpha2 chain, mouse, tissue-extracted; also called collagen type I; full-length collagen; source: extracted from mouse tail tendons using 20 mM acetic acid
T2 sequence (P11087 152-1207, chain 1 of 2): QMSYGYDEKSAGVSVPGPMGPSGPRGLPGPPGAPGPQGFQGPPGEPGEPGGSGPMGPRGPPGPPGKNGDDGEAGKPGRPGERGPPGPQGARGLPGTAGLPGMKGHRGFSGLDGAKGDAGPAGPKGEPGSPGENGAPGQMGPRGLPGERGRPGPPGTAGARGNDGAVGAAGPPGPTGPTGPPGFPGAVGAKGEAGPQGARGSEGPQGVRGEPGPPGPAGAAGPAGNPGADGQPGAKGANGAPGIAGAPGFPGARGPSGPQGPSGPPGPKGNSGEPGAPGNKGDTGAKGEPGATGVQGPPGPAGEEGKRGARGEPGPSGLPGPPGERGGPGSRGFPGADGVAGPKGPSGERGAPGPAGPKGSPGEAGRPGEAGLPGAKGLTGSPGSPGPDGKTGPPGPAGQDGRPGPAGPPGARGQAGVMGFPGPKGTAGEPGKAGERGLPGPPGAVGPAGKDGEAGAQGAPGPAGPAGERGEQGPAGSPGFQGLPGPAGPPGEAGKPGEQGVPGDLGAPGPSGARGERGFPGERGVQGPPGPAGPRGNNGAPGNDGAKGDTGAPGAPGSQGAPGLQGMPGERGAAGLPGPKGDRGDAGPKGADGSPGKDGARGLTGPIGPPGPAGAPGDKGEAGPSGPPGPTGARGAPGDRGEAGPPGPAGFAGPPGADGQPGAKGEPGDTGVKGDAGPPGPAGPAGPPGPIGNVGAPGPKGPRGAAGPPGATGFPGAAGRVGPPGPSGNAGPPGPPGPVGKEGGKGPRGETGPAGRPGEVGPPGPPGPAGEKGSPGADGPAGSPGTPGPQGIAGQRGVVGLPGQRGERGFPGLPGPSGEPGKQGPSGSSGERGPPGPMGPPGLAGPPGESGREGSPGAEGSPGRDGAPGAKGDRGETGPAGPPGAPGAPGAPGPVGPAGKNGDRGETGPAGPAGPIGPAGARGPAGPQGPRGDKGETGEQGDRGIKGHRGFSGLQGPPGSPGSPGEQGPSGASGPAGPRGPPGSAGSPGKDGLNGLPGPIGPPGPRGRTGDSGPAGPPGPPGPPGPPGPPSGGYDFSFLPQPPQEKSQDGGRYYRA
T2 sequence (Q01149 86-1125, chain 2 of 2): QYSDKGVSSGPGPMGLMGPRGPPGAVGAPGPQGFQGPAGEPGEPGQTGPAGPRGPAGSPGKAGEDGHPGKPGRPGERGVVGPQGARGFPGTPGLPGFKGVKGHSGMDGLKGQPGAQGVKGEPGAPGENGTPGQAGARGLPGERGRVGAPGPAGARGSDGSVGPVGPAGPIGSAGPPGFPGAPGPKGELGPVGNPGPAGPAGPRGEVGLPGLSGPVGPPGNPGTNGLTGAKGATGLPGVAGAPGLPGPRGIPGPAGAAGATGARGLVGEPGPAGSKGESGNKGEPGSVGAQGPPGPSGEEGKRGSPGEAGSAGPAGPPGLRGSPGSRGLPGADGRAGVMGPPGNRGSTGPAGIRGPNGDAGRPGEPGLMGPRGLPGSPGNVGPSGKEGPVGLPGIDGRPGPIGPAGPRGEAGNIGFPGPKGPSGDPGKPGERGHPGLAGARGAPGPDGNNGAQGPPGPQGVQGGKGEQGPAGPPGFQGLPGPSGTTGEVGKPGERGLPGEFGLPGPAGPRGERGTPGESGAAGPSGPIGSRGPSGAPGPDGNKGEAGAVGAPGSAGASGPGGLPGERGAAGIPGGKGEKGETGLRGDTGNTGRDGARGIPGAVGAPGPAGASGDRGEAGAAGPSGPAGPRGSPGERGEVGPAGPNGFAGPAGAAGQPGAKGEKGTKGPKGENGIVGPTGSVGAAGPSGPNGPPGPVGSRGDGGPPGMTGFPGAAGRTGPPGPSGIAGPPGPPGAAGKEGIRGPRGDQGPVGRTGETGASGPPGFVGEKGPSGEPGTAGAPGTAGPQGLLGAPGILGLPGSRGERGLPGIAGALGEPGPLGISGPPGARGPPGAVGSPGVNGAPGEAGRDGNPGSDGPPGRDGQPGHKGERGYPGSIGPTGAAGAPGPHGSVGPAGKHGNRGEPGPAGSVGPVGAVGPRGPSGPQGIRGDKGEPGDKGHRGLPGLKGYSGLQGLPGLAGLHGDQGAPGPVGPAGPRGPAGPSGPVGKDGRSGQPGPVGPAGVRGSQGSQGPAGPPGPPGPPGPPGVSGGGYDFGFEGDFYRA

- Kd [1]: ~150 nM
- Kd [2]: ~250 nM
B1: His tag-modified recombinant fibromodulin (human, amino acids 19–376) (natural protein, UniProt Q06828 19-376, looked up)
chain: QYEDDPHWWFHYLRSQQSTYYDPYDPYPYETYEPYPYGVDEGPAYTYGSPSPPDPRDCPQECDCPPNFPTAMYCDNRNLKYLPFVPSRMKYVYFQNNQITSIQEGVFDNATGLLWIALHGNQITSDKVGRKVFSKLRHLERLYLDHNNLTRMPGPLPRSLRELHLDHNQISRVPNNALEGLENLTALYLQHNEIQEVGSSMRGLRSLILLDLSYNHLRKVPDGLPSALEQLYMEHNNVYTVPDSYFRGAPKLLYVRLSHNSLTNNGLASNTFNSSSLLELDLSYNQLQKIPPVNTNLENLYLQGNRINEFSISSFCTVVDVVNFSKLQVLRLDGNEIKRSAMPADAPLCLRLASLIEI
modifications: tyrosine sulfation (positions not given)
notes: fibromodulin, human, amino acids 19-376; also called FMOD; full-length FMOD; source: 293T cells (pCEP4 vector), purified (Ni-NTA-Sepharose, Superose 6)
